From patent US20250066490A1, “ANTI-CD70 ANTIBODIES, CONJUGATES THEREOF AND METHODS OF USING THE SAME” (ProfoundBio US Co., priority 2021, published 2025) come the findings set out here.

Changes are numbered by the printed parent chain.

One data set deals with Caki-1 cells. Put plainly: Internalization by FACS immune-fluorescence staining, Caki-1. The format is cell-based, human. To be noted: Caki-1, based on the cell binding affinity. How it is done: (§1) Briefly, 2×10^5 cells were harvested from a tissue culture flask by treatment with 0.25% Trypsin/EDTA and then incubated with 10 μg/ml of the lead antibodies or control antibodies in FACS buffer (1×PBS with 0.1% BSA) for 30 mins at 4° C. The cells were washed at 4° C. to remove unbound antibodies and kept on ice or shifted to 37° C. At the set time points (0 h, 4 h, 24 h), cells were incubated with PE-conjugated anti human Fc (Abcam, Ab98596) for 30 mins at 4° C. and then analyzed by flow cytometry. The internalization ratio was calculated by subtracting the 37° C. MFI from the 4° C. MFI, and then compared with 4° C. MFI.
(§2) Four cell lines ([…]), Caki-1, Raji, MCF-7) were utilized in the internalization assay. Target (CD70) copy numbers were determined via the QIFIKIT (DAKO, K0078). Briefly, cells were labeled with a primary mouse monoclonal antibody against CD70. Cells, Set-up beads, Calibration beads (from the kit) were then labeled in parallel with a fluorescein-conjugated anti-mouse secondary antibody. The fluorescence is correlated with the number of bound primary antibody molecules on the cells and on the beads. Samples were subsequently analyzed on the flow cytometer and copy number determined based on the calibration curve (Table 11). For internalization assay, 3×10^5 cells were incubated at 4° C. for 30 min with 10 µg/ml 2E7 in FACS buffer (1×PBS containing 0.1% BSA). Cells were washed at 4° C. to remove unbound material and kept on ice or shifted to 37° C. for different lengths of time. At progressive timepoints ([…], 0.5, 1, 2, 3, 4 hr) cells were stained with PE-conjugated anti-human Fc for 30 min at 4° C. and analyzed by flow cytometry. Internalization rate were calculated by subtracting the mean fluorescence intensity (MFI) of cell surface-bound antibody at 37° C. at each time point from the MFI of cell surface-bound antibody at 4° C. at time 0, then divided by the MFI of the cell surface-bound antibody at 4° C. at time 0.

A short description of data set [1]: Hydrophobic interaction chromatography (HIC). To be noted: full IgG; for Retention time: hydrophobicity by HIC. The format is physicochemical. How it is done: Antibodies were purified from cleared cell culture supernatants using Protein A chromatography (Protein A resin slurry, 4.5 mL, Bogen, Cat #18-0010-02). Briefly, supernatants were prepared for affinity chromatography and loaded onto the columns and allowed to flow completely through the resin. The columns were washed with binding buffer containing 0.15M NaCl and 0.2M PB, PH7.0. Antibody was eluted with elution buffer containing 0.15M NaCl, 0.1M Glycine and 0.2M PB, PH 3.0. Fractions were collected and neutralized by the addition of 1/10 volume of 1M Tris, PH9.0. The fractions were dialyzed for 2 hours against 1×PBS. Purified antibody was quantified by absorbance at A280. Samples from each step of the protein A chromatography were applied onto 12% SDS-PAGE gels for reduced and non-reduced electrophoresis. The hydrophobicity was assessed with hydrophobic interaction chromatography (HIC) on a TSK gel Butyl-NPR, 4.6×100 mm with Butyl-NPR (Tosoh corporation) using a Waters HPLC 2695 system.

Another data set concerns 786-O cells. As to the kind of experiment: Internalization by FACS immune-fluorescence staining, 786-O. The format is cell-based, human. To be noted: based on the cell binding affinity. How it is done:
as §1, §2

Data set [2] has as its system cynomolgus CD70 recombinant protein. As to the kind of experiment: Antibody binding ELISA, cynomolgus CD70. Particulars: full IgG, FIG. 3. How it is done:
The binding specificity of the CD70 antibodies was tested by ELISA according to a standard protocol. Briefly, 96-well micro-plates were coated with 2 μg/ml of human or cynomolgus CD70 recombinant protein in PBS at 100 μl per well and incubated overnight at 4° C. The plates were washed twice with TBS+0.5% Tween20. 200 μL of blocking buffer (2% BSA in PBS) was added to each well, and the plates were incubated at 37° C. for 2 hours. The plates were washed using the wash buffer mentioned above. Serially diluted antibodies were added to the ELISA plates using 100 μl per well, and the plates were incubated for 1 hour at room temperature. Then plates were washed 3 times. HRP conjugated anti-human Fc antibody solution (Sigma, I18885-2ML, diluted with blocking buffer) was added to the plates using 100 μl per well. The plates were incubated at room temperature for 1 hour and then washed 3 times. Then the TMB solution was added to plates using 100 μl per well and the plates were placed at RT for 5-15 mins. Then the stop solution (2M H2SO4) was added using 50 μl per well. The absorbance was measured at A450 and A630.

In the next data set the target is T1, CD70 ECD (Homo sapiens, UniProt P32970).
T1 sequence (P32970 39-193 limits assumed): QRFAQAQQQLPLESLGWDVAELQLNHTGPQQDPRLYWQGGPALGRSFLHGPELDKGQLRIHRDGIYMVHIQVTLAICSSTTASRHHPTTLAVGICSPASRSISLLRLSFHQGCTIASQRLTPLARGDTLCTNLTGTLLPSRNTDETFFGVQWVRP
As to the kind of experiment: Biacore affinity measurement on immobilized CD70 ECD. It counts as binding. To be noted: 25° C., CD70 immobilized. How it is done: The immobilization of antigen CD70 ECD was performed at 25° C. with HBS-EP as the running buffer. Sensor chip surface of flow cells 1, 4 were activated by freshly mixed 50 mmol/L N-Hydroxy succinimide (NHS) and 200 mmol/L 1-ethyl-3-(3-dimethylaminopropyl) carbodiimide hydrochloride (EDC) for 420s (10 μL/min). Afterwards, CD70 antigen diluted in 10 mmol/L NaAC (pH 4.5) was injected into flow cell 4 to achieve conjugation of the appropriate Response Unit, while flow cell 1 was set as a blank. After the amine coupling reaction, the remaining active coupling sites on chip surface were blocked by 420s injection of 1 mol/L ethanolamine hydrochloride.
The assay was performed at 25° C. and the running buffer was HBS-EP. Diluted antibodies were injected over the surface of flow cells 1 and 4 during the association phase, followed by injecting running buffer as the dissociation phase. All the data were processed using Biacore T200 Evaluation software version 3.1. Flow cell 1 and a blank injection of buffer in each cycle were used as a double reference for Response Units subtraction. Kinetic data of the interaction between the antibodies and CD70 antigen were obtained through affinity measurement.

Data set [3] relates to 786-O, Caki-1, U251 and DBTRG-05MG cells. As to the kind of experiment: Antibody binding by flow cytometry, statements across all four tumor cell lines. On the set-up: species or system human. To be noted: four cell lines. How it is done: The lead antibodies were tested for binding to renal carcinoma cells and glioblastoma cells expressing CD70 on the cell surface by flow cytometry. Cell lines 786-O (ATCC® CRL-1932™, provided by COBIOER), Caki-1 (ATCC® HTB-46™, provided by COBIOER), U251 and DBTRG-05MG (ATCC® CRL-2020™, provided by COBIOER) were each tested for antibody binding. 786-O cells were cultured with RPMI 1640 medium (Gibco, Cat #11875093) containing of 10% FBS (Gibco, Cat #10099141) while Caki-1 cells were cultured with McCoy's 5a Modified medium (Gibco, Cat #16600082) containing 10% FBS. U251 cells were cultured with MEM medium containing of 10% FBS and 1% NEAA+1 mM sodium pyruvate. DBTRG-05MG cells were cultured with DMEM medium (Gibco, Cat #C11995500BT) containing of 10% FBS. Each of the lead antibodies and the controls were incubated for 30 mins with the different cell lines (3×10^5 cells per well) in 0.2 ml FACS buffer (1×PBS with 0.1% BSA) at 4° C. Then, the cells were pelleted, washed, and incubated at 4° C. for 30 mins with 100 μl of 1:200 diluted PE-conjugated anti human Fc (Abcam, Ab98596) in FACS buffer. The cells were pelleted again, washed with PBS, resuspended in FACS buffer and analyzed by flow cytometer (Beckman, CytoFLEX).

B1: 1H8: anti-CD70 antibody clone, VH SEQ 5 and VL SEQ 6; scFv and full human IgG1/kappa (antibody, V domains shown)
VH: QVQLQESGPGLVKPSETLSLTCTVSGGSVSSDYYYWSWIRQPPGKGLEWLGYIYYSGSTNYNPSLKSRVTISVDTSKNQFSLKLRSVTTADTAVYYCARGDGDFMGVCFDYWGQGTLVTVSS
VL: EIVLTQSPATLSLSPGERATLSCRASQSVSSYLAWYQQKPGQAPRLLIFDASNRATGIPARFSGSGSGTDFTLTISSLEPEDFAVYYCQQRSNWPLTFGGGTKVEIK
Consider B1, for which the “absolute amount of antibody internalized into cell vs parent antibody 69A7” value (“absolute amount … vs parent antibody 69A7” below) in the data set on Caki-1 cells is “higher absolute amount of antibody internalized into cell than the parent antibody 69A7”. Also, the “hydrophobicity compared with the parent antibody 69A7” value in data set [1] (HIC) is “slightly more hydrophobic than the parent antibody 69A7”. Further, the “Retention time” value in data set [1] turned out to be 10.24 min. For the same molecule, the “absolute amount … vs parent antibody 69A7” value in the data set with 786-O cells is recorded as “higher absolute amount of antibody internalized into cell than the parent antibody 69A7”. Also, the “cross binding activity to the cyno-antigen” value in data set [2] is “better cross binding activity to the cyno-antigen than antibody 69A7”. Also, in the data set with CD70 ECD, the “Rmax (RU)” value is recorded as 38.81 RU, the “ka” value was determined as 25600 M⁻¹ s⁻¹ and the “kd” value is 0.00112 s⁻¹. Further, the “binding ability to the cell lines compared with antibody 69A7” value in data set [3] is “slightly higher binding ability to the cell lines than that of antibody 69A7”.

B2: 2D2: anti-CD70 antibody clone, VH SEQ 9 and VL SEQ 10; scFv and full human IgG1/kappa (antibody, V domains shown)
VH: B1 VH with F104Y, M105G, V107N
VL: B1 VL with S92L, N93K, W94F
modifications: left off: another chain or arm of the molecule; large carriers; small tags and cut ends
notes: scFv and full human IgG1/kappa
Turning to B2, the “absolute amount … vs parent antibody 69A7” value in the data set on Caki-1 cells is recorded as “higher absolute amount of antibody internalized into cell than the parent antibody 69A7”. Further, the “Retention time” value in data set [1] was 8.81 min. In the data set with 786-O cells, the “absolute amount … vs parent antibody 69A7” value is on record as “higher absolute amount of antibody internalized into cell than the parent antibody 69A7”. Besides, the “cross binding activity to the cyno-antigen” value in data set [2] is on record as “better cross binding activity to the cyno-antigen than antibody 69A7”. In the data set with CD70 ECD, the “Rmax (RU)” value came out at 38.83 RU, the “ka” value was 11700 M⁻¹ s⁻¹ and the “kd” value is 0.00105 s⁻¹. Also, the “binding ability to the cell lines compared with antibody 69A7” value in data set [3] is listed as “slightly higher binding ability to the cell lines than that of antibody 69A7”.
